Legend:
[1] = biological target: TIRC7 (human (endogenous in PBL)) (UniProt Q13488)
[2] = biological target: TIRC7 (human (endogenous in PBL)) (UniProt Q13488); remark: listed apart in the source

Sequence of UniProt Q13488 (Q13488 217-830): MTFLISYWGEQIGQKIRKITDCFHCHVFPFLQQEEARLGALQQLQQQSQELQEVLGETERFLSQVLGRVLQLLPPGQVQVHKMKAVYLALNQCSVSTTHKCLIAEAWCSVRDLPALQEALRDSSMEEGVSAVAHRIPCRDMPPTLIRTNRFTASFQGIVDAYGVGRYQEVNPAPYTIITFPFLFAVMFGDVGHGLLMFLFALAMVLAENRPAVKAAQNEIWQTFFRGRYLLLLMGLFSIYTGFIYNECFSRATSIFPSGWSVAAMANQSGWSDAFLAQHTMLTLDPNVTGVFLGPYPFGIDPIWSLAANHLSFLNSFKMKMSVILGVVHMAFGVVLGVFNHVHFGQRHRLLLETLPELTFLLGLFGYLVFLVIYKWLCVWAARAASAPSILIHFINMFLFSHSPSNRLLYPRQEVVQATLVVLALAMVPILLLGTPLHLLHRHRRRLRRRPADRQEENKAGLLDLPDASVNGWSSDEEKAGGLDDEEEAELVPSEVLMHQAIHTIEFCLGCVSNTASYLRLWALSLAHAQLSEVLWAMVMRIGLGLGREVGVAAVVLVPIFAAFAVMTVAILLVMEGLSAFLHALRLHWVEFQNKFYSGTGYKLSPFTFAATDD

## soluble HLA-DR alpha 2 fusion protein (entire human HLA-DR alpha 2 domain linked to an IgG1 Fc protein) (Fc fusion)
[1]
  cells in G0/G1 cell cycle phase, human PBL activated with anti-CD3/CD28 48 h with sHLA-DRα2 50 µg/ml (propidium iodine, flow cytometry): 89%
  subdiploid (apoptotic) cells 72 h after incubation of activated human PBL with sHLA-DRα2: 46.4%
[2]
  apoptosis (Annexin V) of human CD4+ cells stimulated 72 h with anti-CD3/CD28, sHLA-DRα2 50 µg/ml: 51%
  apoptosis (Annexin V) of human CD8+ cells stimulated 72 h with anti-CD3/CD28, sHLA-DRα2 50 µg/ml: 54%

From publication PMC2217592
